The source of these data is PMC11696143, “A higher order PUF complex is central to regulation of C. elegans germline stem cells” (Nature Communications, 2024).

The target in series [1] is T1, FBF-2 RBD+CT (Caenorhabditis elegans, UniProt Q09312 164-632).
T1 sequence: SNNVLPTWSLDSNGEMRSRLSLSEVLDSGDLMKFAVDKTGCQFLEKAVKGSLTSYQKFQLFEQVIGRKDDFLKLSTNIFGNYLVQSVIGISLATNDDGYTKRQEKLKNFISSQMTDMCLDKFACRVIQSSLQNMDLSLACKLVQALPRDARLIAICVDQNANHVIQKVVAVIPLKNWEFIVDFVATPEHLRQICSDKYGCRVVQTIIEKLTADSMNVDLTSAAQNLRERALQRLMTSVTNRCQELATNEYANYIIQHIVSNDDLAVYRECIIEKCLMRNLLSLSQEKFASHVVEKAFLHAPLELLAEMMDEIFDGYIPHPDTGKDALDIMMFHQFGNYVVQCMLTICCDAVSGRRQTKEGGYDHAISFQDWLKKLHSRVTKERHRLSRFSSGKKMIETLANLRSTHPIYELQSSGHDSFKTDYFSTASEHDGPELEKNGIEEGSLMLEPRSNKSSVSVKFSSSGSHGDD
The experiment in a line: EMSA; up to 5 uM FBF-2; EMSA: 5 nM RNA, 10 mM HEPES pH 7.4, 75 mM NaCl, 0.01% Tween 20, 0.1 mg/ml BSA, 0.1 mg/ml yeast tRNA, 2 mM DTT, 4 C overnight. Conditions: protein: recombinant; tags: His6-SUMO, removed by Ulp1; label: 3'-Cy5.

Series [2] addresses T2, FBF-2 RBD;LST-1 19-98 S74C (Caenorhabditis elegans;Caenorhabditis …, UniProt Q09312;P91820 164-575;19-98, |S74C).
T2 sequence 1: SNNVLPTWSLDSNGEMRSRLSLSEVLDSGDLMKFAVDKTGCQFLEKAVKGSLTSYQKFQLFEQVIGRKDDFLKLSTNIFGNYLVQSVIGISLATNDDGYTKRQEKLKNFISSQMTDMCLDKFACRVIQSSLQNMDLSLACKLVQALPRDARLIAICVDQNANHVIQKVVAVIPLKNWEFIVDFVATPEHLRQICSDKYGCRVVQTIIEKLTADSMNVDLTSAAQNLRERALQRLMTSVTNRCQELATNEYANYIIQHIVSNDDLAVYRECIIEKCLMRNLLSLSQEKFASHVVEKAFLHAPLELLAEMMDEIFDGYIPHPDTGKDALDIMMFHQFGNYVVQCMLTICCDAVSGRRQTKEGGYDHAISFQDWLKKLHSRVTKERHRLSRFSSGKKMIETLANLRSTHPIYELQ
T2 sequence 2: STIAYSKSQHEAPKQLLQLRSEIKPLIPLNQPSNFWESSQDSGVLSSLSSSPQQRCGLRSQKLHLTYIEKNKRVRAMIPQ
The experiment in a line: FRET; 2 uM FBF-2 RBD; higher FRET than S26C; EMSA: 5 nM RNA, 10 mM HEPES pH 7.4, 75 mM NaCl, 0.01% Tween 20, 0.1 mg/ml BSA, 0.1 mg/ml yeast tRNA, 2 mM DTT, 4 C overnight. Particulars: protein: recombinant;recombinant; tags: His-SUMO, removed by TEV;Cy5-maleimide on C74; chain copies: 2;1; label: 5'-Cy3.

Series [3] addresses T3, C. elegans FBF-2 RBD (residues 164-575) (C. elegans, UniProt Q09312 164-575).
T3 construct: His-SUMO tag cleaved with TEV protease (the insert came from an earlier pGEX6p FBF-2 RBD construct); source: E. coli, purified as FBF-2 RBD+CT (Ni-NTA, heparin, Superdex 75); for SEC-MALS and cryo-EM coexpressed with GST-LST-1 19-98 in E. coli BL21-CodonPlus (DE3)-RIL and purified as a complex; not shown: His6-SUMO, N-terminal, cleaved
T3 sequence (looked up): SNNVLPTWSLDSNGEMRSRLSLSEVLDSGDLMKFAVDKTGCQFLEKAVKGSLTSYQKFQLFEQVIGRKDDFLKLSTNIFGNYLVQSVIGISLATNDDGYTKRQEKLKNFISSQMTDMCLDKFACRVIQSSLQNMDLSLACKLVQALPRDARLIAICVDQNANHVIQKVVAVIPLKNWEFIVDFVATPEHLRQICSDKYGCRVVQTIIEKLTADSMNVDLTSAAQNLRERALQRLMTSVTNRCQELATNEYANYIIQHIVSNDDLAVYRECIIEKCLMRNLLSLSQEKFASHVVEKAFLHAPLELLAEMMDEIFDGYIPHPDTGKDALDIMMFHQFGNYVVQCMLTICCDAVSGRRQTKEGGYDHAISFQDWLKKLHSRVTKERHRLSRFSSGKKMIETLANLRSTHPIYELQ
As to the kind of experiment: ITC; LST-1 variant (100-400 µM) titrated from the syringe into the cell with FBF-2 (10-30 µM); 20 °C; 20 mM HEPES pH 7.4, 150 mM NaCl, 0.5 mM TCEP; no RNA; one-site model; apparent constants; two technical replicates. Conditions: both partners purified.

For series [4], the target named is T4, C. elegans FBF-2 RBD+CT (residues 164-632) (C. elegans, UniProt Q09312 164-632).
T4 construct: His6-SUMO tag removed with Ulp1; source: E. coli BL21-CodonPlus (DE3)-RIL, purified (Ni-NTA, heparin, Superdex 75); not shown: His6-SUMO, N-terminal, cleaved
T4 sequence (looked up): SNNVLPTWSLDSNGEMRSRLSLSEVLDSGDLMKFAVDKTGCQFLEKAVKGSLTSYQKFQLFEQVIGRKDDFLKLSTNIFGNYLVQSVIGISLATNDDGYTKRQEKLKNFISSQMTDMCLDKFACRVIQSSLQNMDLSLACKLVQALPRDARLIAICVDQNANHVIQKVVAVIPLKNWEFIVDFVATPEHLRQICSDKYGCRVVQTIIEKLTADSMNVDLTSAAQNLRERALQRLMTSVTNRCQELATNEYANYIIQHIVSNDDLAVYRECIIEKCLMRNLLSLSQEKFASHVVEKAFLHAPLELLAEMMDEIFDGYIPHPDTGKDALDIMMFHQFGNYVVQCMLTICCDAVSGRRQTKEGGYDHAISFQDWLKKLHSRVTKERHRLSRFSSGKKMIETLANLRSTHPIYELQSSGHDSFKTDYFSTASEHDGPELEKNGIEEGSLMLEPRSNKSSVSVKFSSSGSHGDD
The series is described as above. Conditions: both partners purified.

Series [5] has as its target T4, C. elegans FBF-2 RBD+CT (residues …). As to the kind of experiment: cell-based or functional assay.
For series [6], the target named is T3, C. elegans FBF-2 RBD (residues 164-575). The experiment in a line: SEC-MALS; co-purified FBF-2 RBD+CT or RBD/LST-1 19-98 complex (~30 µM) with 29-nt gld-1 FBEa-FBEa* RNA on Superdex-200 10/300 GL; 20 mM HEPES pH 7.4, 150 mM NaCl, 2 mM DTT. Conditions: both partners purified.
The target of series [7] is T4, C. elegans FBF-2 RBD+CT (residues …). Described as above. Particulars: both partners purified.
Series [8] has as its target T3, C. elegans FBF-2 RBD (residues 164-575). The experiment in a line: FRET or BRET; 2 µM unlabeled FBF-2 RBD pre-incubated with Cy5-labeled LST-1 19-98 (20, 40, 80 nM), then 20 nM 5'-Cy3 gld-1 FBEa-FBEa* RNA; room temperature; FRET from Cy3 on the RNA to Cy5 on LST-1. Conditions: both partners purified.
The target in series [9] is T1, FBF-2 RBD+CT. The experiment in a line: EMSA; apparent Kd, Hill fit; EMSA: 5 nM RNA, 10 mM HEPES pH 7.4, 75 mM NaCl, 0.01% Tween 20, 0.1 mg/ml BSA, 0.1 mg/ml yeast tRNA, 2 mM DTT, 4 C overnight. Conditions: protein: recombinant; tags: His6-SUMO, removed by Ulp1; label: 3'-Cy5.
Series [10] concerns the target T5, FBF-2 RBD (Caenorhabditis elegans, UniProt Q09312 164-575).
T5 sequence: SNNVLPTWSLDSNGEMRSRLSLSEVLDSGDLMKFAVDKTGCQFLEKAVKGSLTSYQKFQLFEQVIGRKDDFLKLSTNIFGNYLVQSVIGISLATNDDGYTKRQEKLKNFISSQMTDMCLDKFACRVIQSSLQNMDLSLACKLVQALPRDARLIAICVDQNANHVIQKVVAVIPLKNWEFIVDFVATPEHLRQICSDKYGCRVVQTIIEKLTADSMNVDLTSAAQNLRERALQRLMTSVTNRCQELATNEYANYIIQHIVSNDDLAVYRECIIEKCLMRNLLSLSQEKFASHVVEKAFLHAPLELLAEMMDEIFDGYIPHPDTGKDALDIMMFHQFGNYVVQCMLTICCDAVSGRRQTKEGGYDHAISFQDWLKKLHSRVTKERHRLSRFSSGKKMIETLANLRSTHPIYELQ
The series is described as above. Particulars: protein: recombinant; tags: His-SUMO, removed by TEV; label: 3'-Cy5.

For series [11], the target named is T5, FBF-2 RBD. As to the kind of experiment: X-ray crystallography; 2.2 A; EMSA: 5 nM RNA, 10 mM HEPES pH 7.4, 75 mM NaCl, 0.01% Tween 20, 0.1 mg/ml BSA, 0.1 mg/ml yeast tRNA, 2 mM DTT, 4 C overnight. Particulars: protein: recombinant; tags: His-SUMO, removed by TEV.

“And” between values parts separate entries of the source, which are not always exact repeats. Equal values may be shown once.

Turning to AUCAACAGCCAUACAUCAACAUGCCAUUU (ssRNA) [FBEam-FBEa*m], in series [1], the binding result is listed as “no binding”.

Consider AUCAUGUGCCAUACAUCAUGUUGCCAUUU (ssRNA) [gld-1 FBEa-FBEa* (FRET)], for which the binding result in series [2] is given as “binds”.

B1: LST-1 peptide (residues 19-98) spanning PIM-A and PIM-B (domain or fragment, C. elegans, UniProt P91820 19-98, looked up)
chain: STIAYSKSQHEAPKQLLQLRSEIKPLIPLNQPSNFWESSQDSGVLSSLSSSPQQRSGLRSQKLHLTYIEKNKRVRAMIPQ
notes: LST-1 (lateral signaling target 1), C. elegans, residues 19-98 of the N-terminal intrinsically disordered region; Codon-optimised synthetic cDNA in pSMT3; tag removed with Ulp1; also called LST-1^19–98; source: E. coli BL21-CodonPlus (DE3)-RIL, purified (Ni-NTA, heparin, Ni-NTA pass, Superdex 75)
On to B1, for which, in series [3], the Kd is 480 nM and 520 nM; the dH was -33.2 kcal/mol and -37.5 kcal/mol; the “stoichiometry N” value worked out at 0.46 sites. In series [4], the Kd was 1100 nM and 1900 nM; the dH is -14.8 kcal/mol and -10.8 kcal/mol; the “stoichiometry N” value is 0.5 sites and 0.57 sites. The “EMSA: RNA-binding affinity of FBF-2 RBD+CT for the 29-nt FBEa-FBEa* RNA with 10 µM LST-1 19-98 against without LST-1” value in series [5] worked out at 4 fold.

B2: LST-1^19–98 from the GST fusion coexpressed with FBF-2 (domain or fragment, C. elegans, UniProt P91820 19-98, looked up)
chain: STIAYSKSQHEAPKQLLQLRSEIKPLIPLNQPSNFWESSQDSGVLSSLSSSPQQRSGLRSQKLHLTYIEKNKRVRAMIPQ
notes: LST-1, C. elegans, residues 19-98; GST removed with TEV protease; also called GST-LST-1^19–98; not shown: GST, N-terminal, cleaved
For B2, the “stoichiometry N” value in series [6] and in [7] was 2 FBF-2 per LST-1 in each case.

B3: LST-1^19–98 S74C labeled with Cy5 (domain or fragment, C. elegans, UniProt P91820 19-98, looked up)
chain: STIAYSKSQHEAPKQLLQLRSEIKPLIPLNQPSNFWESSQDSGVLSSLSSSPQQRCGLRSQKLHLTYIEKNKRVRAMIPQ
modifications: Cy5 maleimide dye on C74
notes: LST-1, C. elegans, residues 19-98 with a cysteine in place of S74, five residues upstream of PIM-B; Probably made as the wild-type LST-1 19-98 (His6-SUMO, cleaved); also called C74-labeled LST-1^19–98; source: purified; expression not described for this mutant
In the case of B3, the binding result in series [8] is recorded as “binds”.

B4: LST-1^19–98(A^m): K32A, L35A (domain or fragment, C. elegans, UniProt P91820 19-98, looked up)
chain: STIAYSKSQHEAPAQLAQLRSEIKPLIPLNQPSNFWESSQDSGVLSSLSSSPQQRSGLRSQKLHLTYIEKNKRVRAMIPQ
notes: LST-1, C. elegans, residues 19-98 with PIM-A mutated; PIM-B intact; also called LST-1 A^m; source: E. coli, purified by the same protocol as the wild-type LST-1 19-98
Take B4: in [3], the Kd was 130 nM and 120 nM; the dH was -15.3 kcal/mol and -16.5 kcal/mol; the “stoichiometry N” value was 1.15 sites and 1.05 sites. Also, in series [4], the Kd is 3700 nM and 2800 nM; the dH was -11.4 kcal/mol and -11.5 kcal/mol; the “stoichiometry N” value was 1.02 sites and 0.98 sites.

B5: LST-1^19–98(B^m): K80A, L83A, Y85A (domain or fragment, C. elegans, UniProt P91820 19-98, looked up)
chain: STIAYSKSQHEAPKQLLQLRSEIKPLIPLNQPSNFWESSQDSGVLSSLSSSPQQRSGLRSQALHATAIEKNKRVRAMIPQ
notes: LST-1, C. elegans, residues 19-98 with PIM-B mutated; PIM-A intact; also called LST-1 B^m; source: E. coli, purified by the same protocol as the wild-type LST-1 19-98
Turning to B5, in [3], the Kd is 1460 nM and 1540 nM; the dH was -12.1 kcal/mol and -12.5 kcal/mol; the “stoichiometry N” value is 0.83 sites and 0.86 sites. Moreover, in series [4], the Kd is 24100 nM and 46200 nM; the dH was -11.1 kcal/mol and -11.5 kcal/mol; the “stoichiometry N” value was 1.06 sites and 0.89 sites.

As for AUCAUGUGCCAUACAUCAACAUGCCAUUU (ssRNA) [FBEa-FBEa*m], the Kd in series [9] came to 1190 ± 9 nM; in series [10] it was 145 ± 4 nM.

Turning to CAUGUUGCCAU (ssRNA) [gld-1 FBEa* 11-nt (crystal)], the binding result in [11] is recorded as “binds”.
